Results published in US8840891 (RSR, dated 2014).

Legend:
[1] = target: TSHR with Arg255 mutated to Aspartic acid (human) (UniProt P16473); experiment: cell-based or functional assay
[2] = target: wild type human TSHR (human) (UniProt P16473); experiment: cell-based or functional assay
[3] = target: TSHR coated onto tubes (human) (UniProt P16473); experiment: TSHR coated tubes, competitor 125I-5C9 IgG

Sequence of 5C9 IgG (antibody) (VH): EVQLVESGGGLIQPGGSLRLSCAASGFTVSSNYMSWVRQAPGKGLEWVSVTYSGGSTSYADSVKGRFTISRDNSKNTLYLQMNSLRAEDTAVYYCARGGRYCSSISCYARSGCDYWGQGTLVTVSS
Sequence of 5C9 IgG (antibody) (VL): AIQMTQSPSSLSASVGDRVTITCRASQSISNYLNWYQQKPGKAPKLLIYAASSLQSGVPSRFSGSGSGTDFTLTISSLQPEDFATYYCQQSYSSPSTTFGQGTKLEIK

5C9 IgG (antibody)
Mutated/wild type (%); 5C9 0.01 µg/mL + TSH [1]: 89% | Mutated/wild type (%); 5C9 0.1 µg/mL + TSH [1]: 85% | Mutated/wild type (%); 5C9 1.0 µg/mL + TSH [1]: 57% | Mutated/wild type (%); 5C9 10 µg/mL + TSH [1]: 59% | Mutated/wild type (%); 5C9 100 µg/mL + TSH [1]: 94% | Mutated/wild type (%); 5C9 100 µg/mL only [1]: 201% | cyclic AMP; 5C9 0.01 µg/mL + TSH (fmol/cell well) [1]: 15700 | cyclic AMP; 5C9 0.1 µg/mL + TSH (fmol/cell well) [1]: 5580 | cyclic AMP; 5C9 1.0 µg/mL + TSH (fmol/cell well) [1]: 1930 | cyclic AMP; 5C9 10 µg/mL + TSH (fmol/cell well) [1]: 735 | cyclic AMP; 5C9 100 µg/mL + TSH (fmol/cell well) [1]: 1410 | cyclic AMP; 5C9 100 µg/mL only (fmol/cell well) [1]: 559 | cyclic AMP; 5C9 0.01 µg/mL + TSH (fmol/cell well) [2]: 17500 | cyclic AMP; 5C9 0.1 µg/mL + TSH (fmol/cell well) [2]: 6600 | cyclic AMP; 5C9 1.0 µg/mL + TSH (fmol/cell well) [2]: 3380 | cyclic AMP; 5C9 10 µg/mL + TSH (fmol/cell well) [2]: 1240 | cyclic AMP; 5C9 100 µg/mL + TSH (fmol/cell well) [2]: 1510 | cyclic AMP; 5C9 100 µg/mL only (fmol/cell well) [2]: 278 | % inhib of 125I-5C9 IgG binding at 0.01 µg/mL [3]: 0% | % inhib of 125I-5C9 IgG binding at 0.1 µg/mL [3]: 10% | % inhib of 125I-5C9 IgG binding at 1 µg/mL [3]: 27% | % inhib of 125I-5C9 IgG binding at 10 µg/mL [3]: 42% | % inhib of 125I-5C9 IgG binding at 100 µg/mL [3]: 65.5%
